Data taken from the supplement of paper PMC10567573.

B1: BTBD1 (parent)
chain: TSAEIELPDVEPAAFLALLRFLYS

Variants of: B1
Test: protein stability index of a GFP-peptide fusion (GPS, HEK-293T) (PSI 1-6); higher = more stable
Details: c terminus: a fixed tail appended
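Also: lentivirally expressed fusions sorted by FACS into six bins by GFP to DsRed ratio, PSI derived from sequencing read proportions per bin multiplied by bin number.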

Variant	protein stability index
TSAEIELPDVEPAAFLALLRFKYS	1.91
TSAEIELPDVEPAAFLALLRFFYS	2.61
TSAEIELPDVEPAAFLALLRFVYS	2.15
TSAEIELPDVEPAAFLALLRFHYS	1.96
TSAEIELPDVEPAAFLALLRFDYS	1.87
TSAEIELPDVEPAAFLALLRFAYS	1.71
TSAEIELPDVEPAAFLALLRFMYS	2.23
TSAEIELPDVEPAAFLALLRFTYS	1.98
TSAEIELPDVEPAAFLALLRFQYS	1.5
TSAEIELPDVEPAAFLALLRFSYS	1.16
TSAEIELPDVEPAAFLALLRFEYS	2.07
TSAEIELPDVEPAAFLALLRFYYS	1.83
TSAEIELPDVEPAAFLALLRFNYS	2.06
TSAEIELPDVEPAAFLALLRFWYS	1.56
TSAEIELPDVEPAAFLALLRFPYS	2.26
TSAEIELPDVEPAAFLALLRFCYS	1.64
TSAEIELPDVEPAAFLALLRFRYS	1.26
TSAEIELPDVEPAAFLALLRFIYS	1.75
TSAEIELPDVEPAAFLALLRFGYS	1.72
TSAEIELPDVEPAAFSALLRFLYS	1.69
TSAEIELPDVEPAAFFALLRFLYS	2.06
TSAEIELPDVEPAAFVALLRFLYS	1.81
TSAEIELPDVEPAAFNALLRFLYS	2.01
TSAEIELPDVEPAAFYALLRFLYS	1.53

Variant	protein stability index
TSAEIELPDVEPAAFQALLRFLYS	2.31
TSAEIELPDVEPAAFWALLRFLYS	1.96
TSAEIELPDVEPAAFEALLRFLYS	2.06
TSAEIELPDVEPAAFTALLRFLYS	1.87
TSAEIELPDVEPAAFAALLRFLYS	2.19
TSAEIELPDVEPAAFPALLRFLYS	1.94
TSAEIELPDVEPAAFMALLRFLYS	1.8
TSAEIELPDVEPAAFRALLRFLYS	1.64
TSAEIELPDVEPAAFHALLRFLYS	1.74
TSAEIELPDVEPAAFIALLRFLYS	1.62
TSAEIELPDVEPAAFGALLRFLYS	1.64
TSAEIELPDVEPAAFDALLRFLYS	1.88
TSAEIELPDVEPAAFKALLRFLYS	1.47
TSAEIELPDVEPAAFCALLRFLYS	1.99
TSAEIELPDVEPQAFLALLRFLYS	1.76
TSAEIELPDVEPKAFLALLRFLYS	2.43
TSAEIELPDVEPLAFLALLRFLYS	1.81
TSAEIELPDVEPVAFLALLRFLYS	2.02
TSAEIELPDVEPWAFLALLRFLYS	2.18
TSAEIELPDVEPTAFLALLRFLYS	2.17
TSAEIELPDVEPHAFLALLRFLYS	2.16
TSAEIELPDVEPGAFLALLRFLYS	1.77
TSAEIELPDVEPSAFLALLRFLYS	2.01
TSAEIELPDVEPMAFLALLRFLYS	2.02

Variant	protein stability index
TSAEIELPDVEPPAFLALLRFLYS	2.05
TSAEIELPDVEPYAFLALLRFLYS	1.59
TSAEIELPDVEPRAFLALLRFLYS	1.73
TSAEIELPDVEPNAFLALLRFLYS	2.5
TSAEIELPDVEPIAFLALLRFLYS	1.8
TSAEIELPDVEPAAFLAFLRFLYS	1.73
TSAEIELPDVEPAAFLATLRFLYS	1.77
TSAEIELPDVEPAAFLAKLRFLYS	1.95
TSAEIELPDVEPAAFLAELRFLYS	2.13
TSAEIELPDVEPAAFLAVLRFLYS	1.37
TSAEIELPDVEPAAFLACLRFLYS	1.77
TSAEIELPDVEPAAFLAALRFLYS	1.08
TSAEIELPDVEPAAFLAPLRFLYS	2.11
TSAEIELPDVEPAAFLADLRFLYS	2.64
TSAEIELPDVEPAAFLAMLRFLYS	1.72
TSAEIELPDVEPAAFLAGLRFLYS	1.86
TSAEIELPDVEPAAFLAILRFLYS	2.69
TSAEIELPDVEPAAFLAYLRFLYS	1.59
TSAEIELPDVEPAAFLARLRFLYS	2.03
TSAEIELPDVEPAAFLAQLRFLYS	1.83
TSAEIELPDVEPAAFLANLRFLYS	1.57
TSAEIELPDVEPAAFLAWLRFLYS	2.2
TSAEIELPDVEPAAFLAHLRFLYS	2.55
TSAEIELPDVEPAAFLASLRFLYS	1.78

Variant	protein stability index
TSAEIELPDVEPAASLALLRFLYS	2.04
TSAEIELPDVEPAAKLALLRFLYS	1.71
TSAEIELPDVEPAATLALLRFLYS	1.78
TSAEIELPDVEPAARLALLRFLYS	2.2
TSAEIELPDVEPAANLALLRFLYS	1.98
TSAEIELPDVEPAAALALLRFLYS	1.69
TSAEIELPDVEPAAYLALLRFLYS	2.56
TSAEIELPDVEPAAGLALLRFLYS	2.23
TSAEIELPDVEPAALLALLRFLYS	1.31
TSAEIELPDVEPAAPLALLRFLYS	2.6
TSAEIELPDVEPAAELALLRFLYS	2.31
TSAEIELPDVEPAAMLALLRFLYS	1.43
TSAEIELPDVEPAADLALLRFLYS	2.73
TSAEIELPDVEPAAHLALLRFLYS	1.67
TSAEIELPDVEPAAQLALLRFLYS	1.83
TSAEIELPDVEPAACLALLRFLYS	2.3
TSAEIELPDVEPAAVLALLRFLYS	1.75
TSAEIELPDVEPAAILALLRFLYS	1.95
TSAEIELPDVEPAAWLALLRFLYS	2.89
TSAEIELPDVEPAAFLVLLRFLYS	1.99
TSAEIELPDVEPAAFLPLLRFLYS	1.75
TSAEIELPDVEPAAFLILLRFLYS	1.4
